We go through 3 molecules from patent US20030091567A1 (published 2003).

For test [1], the target named is Flt4 receptor tyrosine kinase (VEGFR-3) expressed on cells (human) (UniProt P35916). The test can be described thus: Scatchard analysis with 125I-labelled VEGF-C ΔNΔCHis (cell binding, PAE/VEGFR-3 cells).
The target in test [2] is T1, 32 kD VEGF-C polypeptide (amino acids 32-227 of prepro-VEGF-C) (human, UniProt P49767 32-227).
T1 construct: also called 32 kD form; 31 kD
T1 sequence: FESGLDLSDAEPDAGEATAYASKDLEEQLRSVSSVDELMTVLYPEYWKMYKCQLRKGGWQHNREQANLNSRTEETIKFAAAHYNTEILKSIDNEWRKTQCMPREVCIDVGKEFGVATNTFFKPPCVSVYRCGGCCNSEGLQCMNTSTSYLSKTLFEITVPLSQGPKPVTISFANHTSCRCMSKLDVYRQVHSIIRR
Nature of the test: non-reducing and reducing SDS-PAGE of immunoprecipitates. Here is the method:
The immunoprecipitates from each cell culture were subjected to SDS-PAGE under non-denaturing conditions (FIG. 6B). Bands 1-6 were cut out from the gel, soaked for 30 minutes in 1×gel-loading buffer containing 200 mM β-mercaptoethanol, and individually subjected to SDS-PAGE under denaturing conditions (FIGS. 6A and 6C, lanes 1-6).

For test [3], the target named is T2, recombinant Flt4 extracellular domain with C-terminal 6xHis tag (baculovirus), coupled to Sepharose (human, UniProt P35916 25-775).
T2 construct: extracellular domain; also called Flt4EC; Flt4 EC
T2 sequence: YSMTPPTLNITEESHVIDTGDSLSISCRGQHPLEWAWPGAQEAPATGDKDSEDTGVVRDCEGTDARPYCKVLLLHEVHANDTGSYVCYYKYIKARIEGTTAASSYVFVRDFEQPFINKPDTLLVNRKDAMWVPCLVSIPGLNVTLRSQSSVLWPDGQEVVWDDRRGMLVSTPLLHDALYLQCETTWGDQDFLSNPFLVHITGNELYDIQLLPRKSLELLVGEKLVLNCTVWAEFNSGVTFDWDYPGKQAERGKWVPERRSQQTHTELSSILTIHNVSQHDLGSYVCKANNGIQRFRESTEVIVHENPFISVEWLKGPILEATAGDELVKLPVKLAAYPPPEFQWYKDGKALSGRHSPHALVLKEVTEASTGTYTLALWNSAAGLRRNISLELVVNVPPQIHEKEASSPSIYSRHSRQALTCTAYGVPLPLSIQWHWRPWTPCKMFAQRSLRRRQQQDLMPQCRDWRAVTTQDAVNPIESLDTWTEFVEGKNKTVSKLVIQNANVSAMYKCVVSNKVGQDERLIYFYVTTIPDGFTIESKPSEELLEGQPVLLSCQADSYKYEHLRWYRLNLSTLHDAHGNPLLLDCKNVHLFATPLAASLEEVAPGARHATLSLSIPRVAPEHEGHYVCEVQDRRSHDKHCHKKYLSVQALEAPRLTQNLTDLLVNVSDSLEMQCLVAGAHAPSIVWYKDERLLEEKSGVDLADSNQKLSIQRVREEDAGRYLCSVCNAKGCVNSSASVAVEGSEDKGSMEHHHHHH
The test can be described thus: depletion with Flt4EC affinity matrix, read out by VEGFR-2 phosphorylation.

One may read the Kd as the free concentration of one partner at which half of the binding sites on the other are occupied at equilibrium, for simple one-to-one binding. In test [1], “VEGF-C ΔNΔCHis (from UniProt P49767 103-225) (ligand)” returned a Kd of 0.135 nM. That is a sub-nanomolar value.

B1: 29 kD VEGF-C polypeptide (beginning with amino acid 228 of prepro-VEGF-C) (other)
chain: SLPATLPQCQAANKTCPTNYMWNNHICRCLAQEDFMFSSDAGDDSTDGFHDICGPNKELDEETCQCVCRAGLRPASCGPHKELDRNSCQCVCKNKLFPSQCGANREFDENTCQCVCKRTCPRNQPLNPGKCACECTESPQKCLLKGKKFHHQTCSCYRRPCTNRQKACEPGFSYSEEVCRCVPSYWKRPQMS
notes: C-terminal propeptide; also called 29 kD component; 29 kD form
As to B1, the binding result in test [2] is given as “binds”.

B2: recombinant human VEGF165 (ligand)
chain: APMAEGGGQNHHEVVKFMDVYQRSYCHPIETLVDIFQEYPDEIEYIFKPSCVPLMRCGGCCNDEGLECVPTEESNITMQIMRIKPHQGQHIGEMSFLQHNKCECRPKKDRARQENPCGPCSERRKHLFVQDPQTCKCSCKNTDSRCKARQLELNERTCRCDKPRR
notes: Bought protein; also called recombinant human VEGF (R&D Systems)
Turning to B2, in test [3], the binding result is listed as “no binding (tested: 50 ng/ml)”.
